# Reference: article PMC12734981, “A CALB-like Cold-Active Lipolytic Enzyme from Pseudonocardia antarctica: Expression, Biochemical Characterization, and AlphaFold-Guided Dynamics” (Marine Drugs, 2025)
# Experiments:
# [1] = substrate: CC(=O)Oc1ccc([N+](=O)[O-])cc1; assay: p-nitrophenol release, initial rates, nonlinear Michaelis-Menten fit; assay type: biochemical, Pseudonocardia alni; conditions: 100 mM Tris-HCl pH 7.4, 100 mM NaCl, 25 °C
# [2] = substrate: CCCC(=O)Oc1ccc([N+](=O)[O-])cc1; assay: as above; assay type: biochemical, Pseudonocardia alni; conditions: 100 mM Tris-HCl pH 7.4, 100 mM NaCl, 25 °C
protein,measurement,setting,value
"PanLipΔN (Pseudonocardia alni) (protein, Signal peptide (30 residues) and proline-rich putative propeptide (27 residues) removed; ~first 57 residues missing (methods say first 27 of full-length); starts at TLPDE by primer; ends KQNLLE; pET-28a(+) NdeI/XhoI, His tag; codon-optimized; E. coli SHuffle T7 Express; Ni-NTA purified; Precursor length printed as both 324 and 377 residues) TLPDETFGPVDRPGPALSVPPDQLDAAVRCSANATDADRDVALFVPGTTLTPEVNFGFNWFAALDDLGRPYCSVTLPNNAMTDTQIAAEYVVHAIRHVHGISGRKVDVLGHSQGGTEPRFALRFWPDLRGMVDDYVAFGTTNHGSIAINAALCTPATGCAEALWQQTLNSHYTQAMNSYQETFAGISYTQIYTRTDEFVQPNLDDSGTTSLHGGGGEISNVALQDVCLTEAASEHIAVGTYSPVAYALATDALDHDGPADPARVDRGVCTQVFMPGVDPLTFPTDYAATLGLIANQLALAPRVGSEPELRPYTLADDRQG",Km,[1],66.8 ± 18.5 µM
same,kcat,[1],16.2 ± 1.8 s⁻¹
same,Km,[2],2830 ± 1560 µM
same,kcat,[2],9.7 ± 1.8 s⁻¹
